The record followed here is patent publication US20210388110A1 (published 2021).

Positions count from the first letter of the chain named. Read-outs that look alike come from different tables or passages of the source.

Assay [1] deals with T1, soluble human GPC3 (human, UniProt P51654 25-563, limits assumed).
T1 construct: also called glypican 3
In words: SPR (Biacore), single-arm antibody, soluble human GPC3. In general terms: In SPR one partner is held on a chip, and binding of the other changes the refractive index at the surface.

In assay [2] the target is T1, soluble human GPC3. Described as above. The source holds these as a separate data set.

T1 sequence (P51654 other isoform, or with tags, fused parts or gaps limits assumed, form in doubt): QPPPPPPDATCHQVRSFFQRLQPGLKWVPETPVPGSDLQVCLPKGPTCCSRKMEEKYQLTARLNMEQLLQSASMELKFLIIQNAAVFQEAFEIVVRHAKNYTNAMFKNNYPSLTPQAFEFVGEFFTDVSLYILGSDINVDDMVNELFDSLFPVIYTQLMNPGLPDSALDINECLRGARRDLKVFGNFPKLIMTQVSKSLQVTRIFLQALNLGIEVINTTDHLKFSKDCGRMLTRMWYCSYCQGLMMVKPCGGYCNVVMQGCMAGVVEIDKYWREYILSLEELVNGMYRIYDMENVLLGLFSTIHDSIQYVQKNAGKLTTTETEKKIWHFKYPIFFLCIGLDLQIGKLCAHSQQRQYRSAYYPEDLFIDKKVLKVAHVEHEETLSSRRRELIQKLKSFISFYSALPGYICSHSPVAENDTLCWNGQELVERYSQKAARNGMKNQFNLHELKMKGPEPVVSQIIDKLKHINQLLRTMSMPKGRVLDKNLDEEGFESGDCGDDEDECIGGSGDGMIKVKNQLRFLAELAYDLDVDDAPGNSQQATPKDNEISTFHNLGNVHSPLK

B1: H0610-G1dh/none-Hi-Kn010G3/L0000-k0 (antibody, human IgG1, kappa)
heavy: not shown
chain: EPKSSDKTHTCPPCPAPELLGGPSVFLFPPKPKDTLMISRTPEVTCVVVDVSHEDPEVKFNWYVDGVEVHNAKTKPREEQYNSTYRVVSVLTVLHQDWLNGKEYKCKVSNKALPAPIEKTISKAKGQPREPQVCTLPPSRDELTKNQVSLWCLVKGFYPSDIAVEWESNGQPENNYKTTPPVLDSDGSFFLYSKLTVDKSRWQQGNVFSCSVMHEALHNRYTQKSLSLSP
light: DIVMTQSPLSLPVTPGEPASISCRSSQSLVHSNRNTYLHWYQQKPGQAPRLLIYKVSNRFSGVPDRFSGSGSGTDFTLKISRVEAEDVGVYYCGQGTQVPYTFGQGTKLEIKRTVAAPSVFIFPPSDEQLKSGTASVVCLLNNFYPREAKVQWKVDNALQSGNSQESVTEQDSKDSTYSLSSTLTLSKADYEKHKVYACEVTHQGLSSPVTKSFNRGEC
notes: single-arm antibody
Broadly, the Kd is a measure of binding affinity in units of concentration. A lower Kd goes with higher affinity. In assay [1], B1 had a Kd of 4.16 nM.

B2: GCH068-G1dh/none-Hi-Kn010G3/L0000-k0 (antibody, human IgG1, kappa)
heavy: not shown
chain: B1 chain
light: B1 light
notes: single-arm antibody
B2 yielded a Kd in assay [2] of 6.23 nM.

B3: H0610-G1dh/none-Hi-Kn010G3/L0129-k0 (antibody, human IgG1, kappa)
heavy: not shown
chain: B1 chain
light: B1 light with F60R
notes: single-arm antibody
As for B3, in assay [2], the Kd is 5.28 nM.

B4: GCH100-G1dh/none-Hi-Kn010G3/L0000-k0 (antibody, human IgG1, kappa)
heavy: not shown
chain: B1 chain
light: B1 light
notes: single-arm antibody
In assay [2], B4 came in with a Kd of 5.39 nM.

B5: H0610-G1dh/none-Hi-Kn010G3/TR01L003-k0 (antibody, human IgG1, kappa)
heavy: not shown
chain: B1 chain
light: B1 light with L109V, K112E
notes: single-arm antibody
In the case of B5, the affinity in assay [2], expressed as Kd, was 5.08 nM.

B6: H0610-G1dh/none-Hi-Kn010G3/L0091-k0 (antibody, human IgG1, kappa)
heavy: not shown
chain: B1 chain
light: B1 light with H39N
notes: single-arm antibody
In assay [2], B6 had a Kd of 5.43 nM.

B7: H0610-G1dh/none-Hi-Kn010G3/L0136-k0 (antibody, human IgG1, kappa)
heavy: not shown
chain: B1 chain
light: B1 light with S61F
notes: single-arm antibody
Consider B7, for which, in assay [2], the Kd turned out to be 5.04 nM.

B8: H0610-G1dh/none-Hi-Kn010G3/TR01L005-k0 (antibody, human IgG1, kappa)
heavy: not shown
chain: B1 chain
light: B1 light with Q42L, A48S, R50Q, L109V, K112E
notes: single-arm antibody
Molecule B8 registered a Kd in assay [2] of 5.37 nM.

B9: GCH094-G1dh/none-Hi-Kn010G3/L0011-k0 (antibody, human IgG1, kappa)
heavy: not shown
chain: B1 chain
light: B1 light with S28P
notes: single-arm antibody
With B9, the Kd in assay [1] was 4.54 nM.

B10: H0610-G1dh/none-Hi-Kn010G3/L0232-k0 (antibody, human IgG1, kappa)
heavy: not shown
chain: B1 chain
light: B1 light with Q27E
notes: single-arm antibody
In assay [2], B10 returned a Kd of 5.38 nM.

B11: H0610-G1dh/none-Hi-Kn010G3/L0063-k0 (antibody, human IgG1, kappa)
heavy: not shown
chain: B1 chain
light: B1 light with N35E
notes: single-arm antibody
The molecule B11 yielded a Kd in assay [2] of 6.03 nM.

B12: GCH054-G1dh/none-Hi-Kn010G3/L0011-k0 (antibody, human IgG1, kappa)
heavy: not shown
chain: B1 chain
light: B1 light with S28P
notes: single-arm antibody
With B12, the Kd in assay [2] and in assay [1] was 5.25 nM in each case.

B13: H0610-G1dh/none-Hi-Kn010G3/L0187-k0 (antibody, human IgG1, kappa)
heavy: not shown
chain: B1 chain
light: B1 light with V99Y
notes: single-arm antibody
Take B13: the Kd in assay [2] was found to be 4.92 nM.

B14: H0610-G1dh/none-Hi-Kn010G3/L0089-k0 (antibody, human IgG1, kappa)
heavy: not shown
chain: B1 chain
light: B1 light with H39L
notes: single-arm antibody
As to B14, the Kd in assay [2] is 5.24 nM.

B15: H0610-G1dh/none-Hi-Kn010G3/L0139-k0 (antibody, human IgG1, kappa)
heavy: not shown
chain: B1 chain
light: B1 light with S61I
notes: single-arm antibody
On to B15, for which the Kd in assay [2] amounted to 4.78 nM.

B16: H0610-G1dh/none-Hi-Kn010G3/L0126-k0 (antibody, human IgG1, kappa)
heavy: not shown
chain: B1 chain
light: B1 light with F60N
notes: single-arm antibody
For the molecule B16, in assay [2], the affinity, expressed as Kd, was 5.62 nM.

B17: H0610-G1dh/none-Hi-Kn010G3/L0180-k0 (antibody, human IgG1, kappa)
heavy: not shown
chain: B1 chain
light: B1 light with V99N
notes: single-arm antibody
As for B17, binding in assay [2] was characterised by a dissociation constant (Kd) of 4.48 nM.

B18: H0610-G1dh/none-Hi-Kn010G3/L0062-k0 (antibody, human IgG1, kappa)
heavy: not shown
chain: B1 chain
light: B1 light with N35D
notes: single-arm antibody
The molecule B18 yielded a dissociation constant Kd in assay [2] of 5.28 nM.

B19: H0610-G1dh/none-Hi-Kn010G3/L0123-k0 (antibody, human IgG1, kappa)
heavy: not shown
chain: B1 chain
light: B1 light with F60K
notes: single-arm antibody
Molecule B19 returned a Kd in assay [2] of 5.08 nM.

B20: H0610-G1dh/none-Hi-Kn010G3/L0147-k0 (antibody, human IgG1, kappa)
heavy: not shown
chain: B1 chain
light: B1 light with S61V
notes: single-arm antibody
With B20, the Kd in assay [2] turned out to be 4.38 nM.

B21: GCH065-G1dh/none-Hi-Kn010G3/L0011-k0 (antibody, human IgG1, kappa)
heavy: not shown
chain: B1 chain
light: B1 light with S28P
notes: single-arm antibody
With B21, in assay [1], binding was put at a Kd of 0.884 nM.

B22: H0610-G1dh/none-Hi-Kn010G3/L0138-k0 (antibody, human IgG1, kappa)
heavy: not shown
chain: B1 chain
light: B1 light with S61H
notes: single-arm antibody
Consider B22, for which, in assay [2], the Kd stood at 5.24 nM.

B23: H0610-G1dh/none-Hi-Kn010G3/L0144-k0 (antibody, human IgG1, kappa)
heavy: not shown
chain: B1 chain
light: B1 light with S61Q
notes: single-arm antibody
As to B23, in assay [2], the affinity, expressed as Kd, was 4.84 nM.

B24: H0610-G1dh/none-Hi-Kn010G3/L0113-k0 (antibody, human IgG1, kappa)
heavy: not shown
chain: B1 chain
light: B1 light with N58T
notes: single-arm antibody
In assay [2], B24 gave an equilibrium dissociation constant (Kd) of 4.82 nM.

B25: H0610-G1dh/none-Hi-Kn010G3/L0132-k0 (antibody, human IgG1, kappa)
heavy: not shown
chain: B1 chain
light: B1 light with F60V
notes: single-arm antibody
Regarding B25, the affinity in assay [2], expressed as Kd, was 5.65 nM.

B26: H0610-G1dh/none-Hi-kn010G3/L0106-k0 (antibody, human IgG1, kappa)
heavy: not shown
chain: B1 chain
light: B1 light with N58H
notes: single-arm antibody
Turning to B26, in assay [2], the dissociation constant (Kd) is 5.66 nM.

B27: H0610-G1dh/none-Hi-Kn010G3/L0043-k0 (antibody, human IgG1, kappa)
heavy: not shown
chain: B1 chain
light: B1 light with S32N
notes: single-arm antibody
On to B27, for which, in assay [2], the Kd was determined as 5.14 nM.

B28: H0610-G1dh/none-Hi-kn010G3/L0137-k0 (antibody, human IgG1, kappa)
heavy: not shown
chain: B1 chain
light: B1 light with S61G
notes: single-arm antibody
In assay [2], B28 came in with a Kd of 5.87 nM.

B29: H0610-G1dh/none-Hi-Kn010G3/L0104-k0 (antibody, human IgG1, kappa)
heavy: not shown
chain: B1 chain
light: B1 light with N58F
notes: single-arm antibody
Molecule B29 displayed a Kd in assay [2] of 5.9 nM.

B30: H0610-G1dh/none-Hi-Kn010G3/L0117-k0 (antibody, human IgG1, kappa)
heavy: not shown
chain: B1 chain
light: B1 light with F60A
notes: single-arm antibody
In assay [2], B30 returned a Kd of 4.92 nM.

B31: H0610-G1dh/none-Hi-Kn010G3/L0046-k0 (antibody, human IgG1, kappa)
heavy: not shown
chain: B1 chain
light: B1 light with S32V
notes: single-arm antibody
Take B31: in assay [2], the Kd was 5.45 nM.

B32: H0610-G1dh/none-Hi-Kn010G3/L0109-k0 (antibody, human IgG1, kappa)
heavy: not shown
chain: B1 chain
light: B1 light with N58M
notes: single-arm antibody
As to B32, binding in assay [2] was characterised by a dissociation constant (Kd) of 5.7 nM.

B33: GCH094-G1dh/none-Hi-Kn010G3/L0000-k0 (antibody, human IgG1, kappa)
heavy: not shown
chain: B1 chain
light: B1 light
notes: single-arm antibody
Turning to B33, the dissociation constant Kd in assay [2] is 5.89 nM.

B34: H0610-G1dh/none-Hi-Kn010G3/L0069-k0 (antibody, human IgG1, kappa)
heavy: not shown
chain: B1 chain
light: B1 light with N35M
notes: single-arm antibody
Regarding B34, in assay [2], the Kd was determined as 5.32 nM.
